Measured values: the supplement of paper PMC9876800

Tested on: peptide library, one residue held at a place counted from the S/T acceptor
Assay: relative phosphorylation of the sub-library (ratio to the mean residue at this position); higher = residue favoured
Summary of the method: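 Relative sub-library phosphorylation is the ratio of each sub-library's signal to the mean residue at that position. The signal came from phosphorimaging of spots on streptavidin membranes, quantified by densitometry, after purified recombinant kinases reacted with biotinylated degenerate peptide sub-libraries in 384-well plates. Reactions held 50 μM peptide and 50 μM ATP spiked with γ-32P-ATP for 90 min under kinase-specific conditions.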

TSSK6, construct: Full length, human, sequence (Q9BXA6 whole entry, looked up): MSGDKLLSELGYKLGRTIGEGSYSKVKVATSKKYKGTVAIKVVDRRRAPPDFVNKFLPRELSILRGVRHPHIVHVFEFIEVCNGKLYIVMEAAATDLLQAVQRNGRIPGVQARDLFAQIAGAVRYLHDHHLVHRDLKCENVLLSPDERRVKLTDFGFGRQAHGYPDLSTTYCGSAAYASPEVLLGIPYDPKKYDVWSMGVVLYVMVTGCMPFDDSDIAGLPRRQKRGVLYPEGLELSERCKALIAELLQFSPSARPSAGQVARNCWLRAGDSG
TTBK2, construct: aa1-450, human, sequence (Q6IQ55 1-450, looked up): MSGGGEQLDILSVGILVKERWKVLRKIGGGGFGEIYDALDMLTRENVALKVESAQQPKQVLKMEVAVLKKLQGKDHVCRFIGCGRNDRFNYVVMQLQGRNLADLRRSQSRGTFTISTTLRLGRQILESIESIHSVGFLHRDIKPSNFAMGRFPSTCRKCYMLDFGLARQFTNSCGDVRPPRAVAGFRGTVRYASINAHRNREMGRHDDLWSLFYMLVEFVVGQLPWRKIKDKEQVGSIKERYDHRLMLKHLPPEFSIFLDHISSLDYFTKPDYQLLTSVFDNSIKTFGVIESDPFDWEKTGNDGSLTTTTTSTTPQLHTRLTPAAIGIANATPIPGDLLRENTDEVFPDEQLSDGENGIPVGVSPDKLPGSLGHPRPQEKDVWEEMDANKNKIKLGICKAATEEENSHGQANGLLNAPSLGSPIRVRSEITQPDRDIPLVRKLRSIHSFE

TSSK6, construct: Full length, human (from UniProt Q9BXA6)
relative phosphorylation
Conditions | at +1 | at +2 | at +3 | at +4 | at -1 | at -2 | at -3 | at -4 | at -5
A fixed | 0.866 | 0.53 | 0.939 | 0.483 | 1.08 | 1.85 | 1.52 | 1.26 | 2.13
D fixed | 0.814 | 0.32 | 1.61 | 0.385 | 0.442 | 0.203 | 0.21 | 0.354 | 0.243
E fixed | 0.876 | 0.568 | 0.702 | 0.265 | 0.603 | 0.328 | 0.335 | 0.562 | 0.234
F fixed | 0.806 | 1.16 | 1.03 | 1.5 | 0.537 | 0.586 | 0.45 | 0.532 | 0.466
G fixed | 0.426 | 0.258 | 0.513 | 0.584 | 0.604 | 0.649 | 0.965 | 1.22 | 0.542
H fixed | 1.23 | 3.4 | 1.89 | 0.696 | 0.82 | 0.868 | 0.848 | 1.32 | 0.607
I fixed | 0.765 | 1.51 | 0.506 | 2.46 | 0.579 | 0.891 | 0.724 | 0.673 | 1.45
K fixed | 1.45 | 0.403 | 1.09 | 0.543 | 2.1 | 3.12 | 2.57 | 2.67 | 0.911
L fixed | 0.925 | 1.38 | 0.645 | 3.38 | 0.657 | 0.416 | 0.61 | 0.721 | 1.71
M fixed | 1.16 | 1.69 | 0.825 | 1.68 | 0.874 | 0.629 | 0.779 | 0.968 | 0.703
N fixed | 1.38 | 0.574 | 1.94 | 0.653 | 0.876 | 0.87 | 0.72 | 0.758 | 0.508
P fixed | 0.155 | 0.299 | 0.204 | 0.591 | 1.83 | 0.446 | 1.35 | 0.544 | 1.46
Q fixed | 1.56 | 0.847 | 1.02 | 0.605 | 1.35 | 1.23 | 0.962 | 0.943 | 0.999
R fixed | 1.83 | 0.499 | 1.25 | 0.506 | 2.4 | 2.11 | 3.07 | 2.22 | 1.93
V fixed | 0.932 | 0.96 | 0.59 | 1.42 | 0.804 | 1.55 | 0.773 | 0.938 | 1.73
W fixed | 0.85 | 1.08 | 1.27 | 0.677 | 0.662 | 0.518 | 0.571 | 0.641 | 0.469
Y fixed | 0.97 | 1.52 | 0.981 | 0.582 | 0.778 | 0.747 | 0.555 | 0.685 | 0.902
pThr fixed | 0.547 | 0.29 | 0.216 | 0.269 | 0.566 | 0.279 | 0.724 | 0.748 | 0.793
pTyr fixed | 0.534 | 0.459 | 0.32 | 0.268 | 0.417 | 0.427 | 0.519 | 0.447 | 0.752

TTBK2, construct: aa1-450, human (from UniProt Q6IQ55)
relative phosphorylation
Conditions | at +1 | at +2 | at +3 | at +4 | at -1 | at -2 | at -3 | at -4 | at -5
A fixed | 0.693 | 1.88 | 1.11 | 1.02 | 0.912 | 1.25 | 0.986 | 0.998 | 1.03
D fixed | 0.298 | 0.221 | 0.968 | 0.919 | 0.604 | 1.91 | 1.38 | 1.34 | 0.944
E fixed | 0.913 | 0.22 | 1.42 | 0.928 | 0.64 | 1.36 | 1.2 | 1.08 | 0.905
F fixed | 1.38 | 0.907 | 1.07 | 0.85 | 0.951 | 0.802 | 0.844 | 1.11 | 1.08
G fixed | 0.29 | 0.615 | 1.21 | 1.17 | 0.563 | 0.964 | 1.19 | 1.18 | 1.28
H fixed | 0.878 | 1.48 | 1.09 | 0.983 | 1.05 | 0.867 | 1.18 | 0.996 | 1.03
I fixed | 1.72 | 1.07 | 1.01 | 0.853 | 1.24 | 0.742 | 0.949 | 0.881 | 0.99
K fixed | 0.739 | 0.913 | 0.707 | 0.996 | 1.32 | 0.67 | 0.884 | 1.12 | 1.15
L fixed | 1.5 | 0.733 | 1.03 | 0.822 | 1.12 | 1.29 | 0.807 | 0.811 | 0.699
M fixed | 1.52 | 1.38 | 1.1 | 1 | 1.14 | 0.853 | 0.972 | 0.859 | 0.827
N fixed | 0.329 | 0.553 | 0.594 | 0.92 | 0.942 | 1.07 | 1.04 | 0.841 | 0.847
P fixed | 0.115 | 0.31 | 0.495 | 1.24 | 0.805 | 1.35 | 0.834 | 0.837 | 0.981
Q fixed | 1.03 | 0.57 | 1 | 0.858 | 0.741 | 0.994 | 0.879 | 0.818 | 0.771
R fixed | 1.1 | 1.8 | 0.801 | 1.29 | 1.71 | 0.743 | 1.13 | 1.06 | 1.41
V fixed | 1.42 | 0.908 | 1.07 | 0.75 | 1.12 | 0.81 | 0.75 | 0.898 | 0.937
W fixed | 1.45 | 1.91 | 1.1 | 1.4 | 0.93 | 0.69 | 0.885 | 1.08 | 0.946
Y fixed | 1.63 | 1.54 | 1.23 | 0.998 | 1.22 | 0.643 | 1.09 | 1.1 | 1.18
pThr fixed | 0.576 | 0.426 | 0.831 | 0.97 | 0.7 | 2.61 | 1.78 | 1.55 | 1.02
pTyr fixed | 1.7 | 5.77 | 1.16 | 0.752 | 1.02 | 2.59 | 2.62 | 1.84 | 1.77
